This assay deals with NC4-antiserum (rabbit polyclonal antiserum against the collagen alpha1 (IX) NC4-peptide coupled to KLH). Put plainly: inhibition ELISA: free NC4-peptide against binding of NC4-antiserum to solid-phase NC4-peptide. A general note: ELISA stands for enzyme-linked immunosorbent assay.

As for H-CGQDDLPGFDLISQFQ-NH2 [NC4-peptide NH2-…^64-CONH2], the peptide concentration showing efficient inhibition of the binding is 0.3 ng/mL.

(Values after patent publication US20080220459A1.)
